According to patent US20210139581A1 (Alector, published 2021):
Where a chain is given by its changes, count along the chain named. Like-named read-outs stand apart in the source and are kept apart here. Blank lines part the entries; values can stand above or below the binder they belong to.

Key:
[1] = target: T1, human CD33 on primary human monocyte-derived dendritic cells (human, UniProt P20138 18-364); test: cell-based or functional assay
human CD33 [2] = target: T2, human CD33 (human, UniProt P20138 18-259, limits assumed); test: BLI (ForteBio), Fab 100 nM on immobilized CD33
T2 construct: Human CD33 immobilized on the BLI sensor tip or the BIAcore C1 chip; also called Siglec-3
Experimental: (§1) The affinities (KD) of the humanized antibodies for human CD33 were measured for each antibody by BioLayer Interferometry in a ForteBio assay according to standard techniques (Estep et al. (2013) MAbs 5(2): 270-8). […] The assay was carried out at room temperature.

[3] = target: T1, human CD33 on primary human …; test: cell-based or functional assay; remark: listed apart in the source
human CD33 [4] = target: T2, human CD33; test: SPR (BIAcore), Fab over CD33 on C1 chip
Experimental: (§2) The affinity parameters for 10 of the 88 humanized antibodies (AB-H1, AB-H3, AB-H6, AB-H11, AB-H22, AB-H24, AB-H26, AB-H63, AB-H64, and AB-H71) were measured in a separate experiment by a more sensitive technique, surface plasmon resonance (BIAcore), and compared to Chimeric Ab and Chimeric Ab #2. BIAcore measurements were performed as follows: human CD33 was immobilized on the surface of a C1 chip, and Fabs were injected for 300 s to monitor association, followed by a 900 s flow in running buffer to monitor dissociation. The Fabs were measured at 5 concentrations: a high concentration of 27 nM and 3-fold serial dilutions.
In a separate experiment, as determined by the more sensitive BIAcore technique, affinity parameters of affinity matured antibodies derived from the humanized antibody AB-H64 were measured and were directly compared to that of the Chimeric Ab, according to the method described in Example 1 above.

[5] = target: T1, human CD33 on primary human …; test: cell-based or functional assay; remark: listed apart in the source
human CD33 [6] = target: T2, human CD33; test: SPR (BIAcore), Fab over CD33 on C1 chip; remark: listed apart in the source
Experimental: as §2

[7] = target: T1, human CD33 on primary human …; test: cell-based or functional assay; remark: listed apart in the source
human CD33 [8] = target: T2, human CD33; test: BLI (ForteBio), Fab 100 nM on immobilized CD33; remark: listed apart in the source
Experimental: as §1
(§3) The affinities of AB-H14 and its affinity-matured variants (Table 15) and AB-H63 and its affinity-matured variants (Table 16), for human CD33 were measured by Fortebio assay according to the method described in Example 1 above.

[9] = target: T1, human CD33 on primary human …; test: cell-based or functional assay; remark: listed apart in the source
human CD33 [10] = target: T2, human CD33; test: BLI (ForteBio), Fab 100 nM on immobilized CD33; kon/koff columns printed 3 rows too low, assigned by koff/kon = printed KD of AB-63.4
Experimental: as §1, §3

human CD33 [11] = target: T2, human CD33; test: BLI (ForteBio), Fab 100 nM on immobilized CD33; remark: listed apart in the source
Experimental: as §1
The affinities of AB-H64 and its variants (Table 5) for human CD33 were measured by Fortebio assay according to the method described in Example 1 above.

[12] = target: T1, human CD33 on primary human …; test: cell-based or functional assay; remark: listed apart in the source
[13] = target: T1, human CD33 on primary human …; test: cell-based or functional assay; remark: listed apart in the source
human CD33 [14] = target: T2, human CD33; test: ligand-blocking red blood cell solid adhesion assay: antibody pre-incubated on plate-bound CD33-Fc, then binding of red blood cells (sialic acid-containing CD33 ligands) read as peroxidase activity (TMB, 450 nm), relative to no antibody; blocked ligand: CD33 ligands on red blood cells
Experimental: The affinity matured antibody, AB-64.1 and two of its variants, AB-64.1.2 and AB-64.1.8, were evaluated for their ability to compete with CD33 ligand for binding to CD33 using a red blood cell (RBC) solid adhesion assay, according to standard protocols (Kelm, et al. Current Biology, 1994). Red blood cells are highly decorated with glycoproteins containing sialic acids; therefore the ability of an antibody to block RBC binding to immobilized CD33 was used to determine ligand interference. Briefly, 96-well Immunolon plates were coated overnight with 5 μg/mL CD33-Fc, then were washed with PBS and blocked for one hour with binding buffer (PBS containing 0.25% BSA and 1 mM CaCl₂)). CD33 antibodies were added and incubated for one hour at room temperature with gentle rocking. After removal of unbound antibody, RBCs were added to each well at 3.0×10⁶ cells/mL and incubated at room temperature for one hour. Unbound RBCs were then carefully removed by washing three times with PBS, after which water was added to each well to induce hypotonic lysis of bound RBCs. The plate was transferred to −80° C. for 10 minutes, followed by 37° C. for 15 minutes. Quantification of bound RBCs was measured as peroxidase activity by adding TMB, followed by the addition of 2N sulfuric acid to stop the reaction. Signal was detected at 450 nm. Data was calculated as a percentage of RBC binding to plate-bound CD33-Fc in the absence of antibody.

human CD33 [15] = target: T2, human CD33; test: BLI (ForteBio), Fab 100 nM on immobilized CD33; remark: listed apart in the source
Experimental: as §1
The affinity parameters of two of the antibodies, 64.1.2 and 64.1.8, were measured in a separate experiment by BIAcore, where they were directly compared to the parental antibody, AB-64.1, the parental humanized antibody, AB-H64, and the Chimeric Ab.

[16] = target: T1, human CD33 on primary human …; test: cell-based or functional assay; remark: listed apart in the source
human CD33 [17] = target: T2, human CD33; test: BLI (ForteBio), Fab 100 nM on immobilized CD33; kon/koff columns printed 3 rows too low, assigned by koff/kon = printed KD of AB-63.5
Experimental: as §1, §3

T2 sequence (P20138 18-259 limits assumed): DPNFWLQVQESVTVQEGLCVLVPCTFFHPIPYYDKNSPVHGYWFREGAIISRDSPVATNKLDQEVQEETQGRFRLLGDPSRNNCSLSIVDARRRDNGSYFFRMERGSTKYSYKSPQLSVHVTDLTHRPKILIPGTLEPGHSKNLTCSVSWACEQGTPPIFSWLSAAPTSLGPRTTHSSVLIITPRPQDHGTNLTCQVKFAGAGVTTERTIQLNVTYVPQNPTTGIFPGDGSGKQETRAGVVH
T1 sequence (P20138 18-364): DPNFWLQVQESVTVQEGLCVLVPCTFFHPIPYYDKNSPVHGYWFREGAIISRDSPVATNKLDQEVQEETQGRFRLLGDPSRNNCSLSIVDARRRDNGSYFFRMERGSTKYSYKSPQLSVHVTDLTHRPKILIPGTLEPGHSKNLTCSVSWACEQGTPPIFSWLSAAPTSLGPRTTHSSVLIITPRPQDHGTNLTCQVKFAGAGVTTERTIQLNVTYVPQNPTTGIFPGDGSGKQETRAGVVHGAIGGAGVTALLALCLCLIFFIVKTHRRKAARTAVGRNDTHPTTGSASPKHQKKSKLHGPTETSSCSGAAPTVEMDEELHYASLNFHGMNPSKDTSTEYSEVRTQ

B1: Chimeric Ab (antibody, V domains shown)
VH: EVQLQQSGPELVKPGASVKISCKASGYTFTDYNLHWVKLSHGKSLEWIGFIYPSNGITGYNQKFKNKATLTVDNSSSTAYMELRSLTSEDSAVYYCARSTVDYFDYWGQGTTLTVSS
VL: DIVLTQSPASLAVSLGQRATMSCRASQSVSTSTYSYMHWYQQKPGQPPKLLIKYASNLESGVPARFSGSGSGTDFTLNIHPVEEEDTATYYCQHSWEIPLTFGAGTKLELK
notes: Chimeric antibody with the variable regions of murine 2F5.1; also called parental antibody; comparator antibody
Receptor downregulation (EC50) [1]: 74.3 pM
Kd (human CD33 [2]): 5220 pM
Maximal Downregulation (% CD33 remaining) [3]: 24.1%
Receptor downregulation (EC50) [3]: 86.9 pM
Kd (human CD33 [4]): 1630 pM
koff (human CD33 [4]): 0.00162 s⁻¹
kon (human CD33 [4]): 995000 M⁻¹ s⁻¹
Maximal Downregulation (% CD33 remaining) [5]: 24.1%
Receptor downregulation (EC50) [5]: 86.9 pM
Kd (human CD33 [6]): 1630 pM
koff (human CD33 [6]): 0.00162 s⁻¹
kon (human CD33 [6]): 995000 M⁻¹ s⁻¹

B4: AB-H64 (antibody, V domains shown)
VH: QVQLVQSGAEVKKPGASVKISCKASGYTFTDYNLHWVRQAPGQGLEWIGFIYPSNGITGYAQKFQGRATLTVDNSTSTAYMELSSLRSEDTAVYYCARSTVDYFDYWGQGTLLTVSS
VL: DIVLTQSPDSLAVSLGERATINCRASQSVSTSTYSYMHWYQQKPGQPPKLLIKYASNLESGVPDRFSGSGSGTDFTLTISSLQAEDVAVYYCQHSWEIPLTFGQGTKLEIK
notes: Humanized variant of murine 2F5.1; also called parental humanized antibody
Receptor downregulation (EC50) [1]: 13.7 pM
Kd (human CD33 [2]): 4080 pM
Kd (human CD33 [11]): 2860 pM
Maximal Downregulation (% CD33 remaining) [3]: 22.4%
Receptor downregulation (EC50) [3]: 29 pM
Fold Change to Chimeric Ab (human CD33 [4]): 0.76 fold
Kd (human CD33 [4]): 2150 pM
koff (human CD33 [4]): 0.00221 s⁻¹
kon (human CD33 [4]): 1.03e+06 M⁻¹ s⁻¹
Maximal Downregulation (% CD33 remaining) [5]: 22.4%
Receptor downregulation (EC50) [5]: 29 pM
Fold Change to Chimeric Ab (human CD33 [6]): 0.76 fold
Kd (human CD33 [6]): 2150 pM
koff (human CD33 [6]): 0.00221 s⁻¹
kon (human CD33 [6]): 1.03e+06 M⁻¹ s⁻¹
Receptor downregulation (EC50) [12]: 36.6 pM

B5: AB-64.1.2 (antibody, V domains shown)
VH: B4 VH with G56R, T100D
VL: B4 VL
notes: Variant of AB-64.1
fold increase in potency in decreasing cell surface CD33, against AB-H64 [13]: 1.5 fold
fold increase in potency in decreasing cell surface CD33, against Chimeric Ab [13]: 4.6 fold
EC50 (human CD33 [14]): 550 pM
Kd (human CD33 [15]): 902 pM
Fold Change to AB-H64 (human CD33 [4]): 11.6 fold
Fold Change to Chimeric Ab (human CD33 [4]): 8.8 fold
Kd (human CD33 [4]): 185 pM
koff (human CD33 [4]): 0.000507 s⁻¹
kon (human CD33 [4]): 2.74e+06 M⁻¹ s⁻¹
Maximal Downregulation (% CD33 remaining) [5]: 24.8%
Receptor downregulation (EC50) [5]: 18.9 pM
Receptor downregulation (% remaining at 0.16 µg/mL antibody) [16]: 32.4%

B6: AB-64.1.8 (antibody, V domains shown)
VH: B4 VH with G56Q, T76A, T100D
VL: B4 VL
notes: Variant of AB-64.1
EC50 (human CD33 [14]): 620 pM
Kd (human CD33 [15]): 802 pM
Fold Change to AB-H64 (human CD33 [4]): 12.3 fold
Fold Change to Chimeric Ab (human CD33 [4]): 9.29 fold
Kd (human CD33 [4]): 175 pM
koff (human CD33 [4]): 0.000634 s⁻¹
kon (human CD33 [4]): 3.62e+06 M⁻¹ s⁻¹
Maximal Downregulation (% CD33 remaining) [5]: 30.1%
Receptor downregulation (EC50) [5]: 28.2 pM
Receptor downregulation (% remaining at 0.16 µg/mL antibody) [16]: 32.7%

B8: AB-H63 (antibody, V domains shown)
VH: B4 VH with I20V, A68V, L70M, N74T, A79V, L113V
VL: B4 VL
notes: Humanized variant of murine 2F5.1
Receptor downregulation (EC50) [1]: 4.1 pM
Maximal Downregulation (% CD33 remaining) [9]: 16.1%
Receptor downregulation (EC50) [9]: 72.6 pM
Kd (human CD33 [2]): 4070 pM
Maximal Downregulation (% CD33 remaining) [3]: 20.3%
Receptor downregulation (EC50) [3]: 32 pM
Kd (human CD33 [8]): 2720 pM
koff (human CD33 [8]): 0.00168 s⁻¹
kon (human CD33 [8]): 615000 M⁻¹ s⁻¹
Fold Change to Chimeric Ab (human CD33 [6]): 0.46 fold
Kd (human CD33 [6]): 3530 pM
koff (human CD33 [6]): 0.00263 s⁻¹
kon (human CD33 [6]): 744000 M⁻¹ s⁻¹

B9: AB-63.5 (antibody, V domains shown)
VH: B4 VH with I20V, L34N, A68V, L70M, N74T, A79V, T100D, L113V
VL: B4 VL
Maximal Downregulation (% CD33 remaining) [9]: 16.5%
Receptor downregulation (EC50) [9]: 40.1 pM
koff (human CD33 [17]): 0.000524 s⁻¹
kon (human CD33 [17]): 847000 M⁻¹ s⁻¹
Fold affinity improvement over parental Ab (AB-H63) (human CD33 [8]): 4.4 fold
Kd (human CD33 [8]): 619 pM

The remaining lines, values ahead:

Receptor downregulation (EC50) [1]: 42 pM
Kd (human CD33 [2]): 3420 pM
Maximal Downregulation (% CD33 remaining) [7]: 15%
Receptor downregulation (EC50) [7]: 151 pM
Kd (human CD33 [8]): 2910 pM
koff (human CD33 [8]): 0.00115 s⁻¹
kon (human CD33 [8]): 397000 M⁻¹ s⁻¹
B2: AB-H14 (antibody, V domains shown)
VH: B4 VH with I20V, A68V, L70M, N74T, A79V, L113V
VL: DIQMTQSPSSLSASVGDRVTITCRASQSVSTSTYSYMHWYQQKPGKAPKLLIKYASNLESGVPSRFSGSGSGTDFTLTISSLQPEDFATYYCQHSWEIPLTFGQGTKLEIK
notes: as for B8

Maximal Downregulation (% CD33 remaining) [9]: 17.6%
Receptor downregulation (EC50) [9]: 69.1 pM
koff (human CD33 [10]): 0.000581 s⁻¹
kon (human CD33 [10]): 809000 M⁻¹ s⁻¹
Fold affinity improvement over parental Ab (AB-H63) (human CD33 [8]): 3.79 fold
Kd (human CD33 [8]): 718 pM
B3: AB-63.4 (antibody, V domains shown)
VH: B4 VH with I20V, L34Y, A68V, L70M, N74T, A79V, L113V
VL: B4 VL

Fold affinity improvement over parental Ab (AB-H64) (human CD33 [11]): 3.23 fold
Kd (human CD33 [11]): 885 pM
EC50 (human CD33 [14]): 710 pM
Kd (human CD33 [15]): 499 pM
Fold Change to AB-H64 (human CD33 [4]): 20.4 fold
Fold Change to Chimeric Ab (human CD33 [4]): 15.4 fold
Kd (human CD33 [4]): 105 pM
koff (human CD33 [4]): 0.000485 s⁻¹
kon (human CD33 [4]): 4.61e+06 M⁻¹ s⁻¹
Maximal Downregulation (% CD33 remaining) [5]: 27.3%
Receptor downregulation (EC50) [5]: 15.4 pM
Receptor downregulation (% remaining at 0.16 µg/mL antibody) [16]: 37.2%
Receptor downregulation (EC50) [12]: 18.5 pM
B7: AB-64.1 (antibody, V domains shown)
VH: B4 VH with T100D
VL: B4 VL
